{
  "source": "patent US12491259B2",
  "about": "“Anti-variable MUC1* antibodies and uses thereof” (Minerva Biotechnologies Corporation, priority 2022, dated 2025)",
  "key": {"[1]": {"test_system": "DU145 hormone refractory prostate cancer cells", "assay": "PrestoBlue live/dead cell assay and brightfield photographs", "assay_type": "cell-based", "conditions": "500 nM, 20× magnification"}, "[2]": {"test_system": "T47D wild-type breast cancer cells", "assay": "xCELLigence real-time killing assay (impedance)", "assay_type": "cell-based, human", "protocol": "FIGS. 49A-49J show traces from the real-time killing assays performed on an xCELLigence instrument. In this assay, impedance is measured in real-time. When the adherent cancer cells are killed and come off of the electrode surface, impedance (insulation) decreases. T47D wild-type breast cancer cells were plated onto multi-electrode-well plates at 5,000 cells per well and allowed to adhere and grow for 24 hours before the addition of ADCs. Either MNC2-MMAE, DAR 4.1, MN20A10-MMAE, DAR 5.8, MNC2-MMAF, DAR 3.7, MN20A10-MMAF, DAR 3.8, MNC2-Deruxtecan, DAR 7.2, or MN20A10-Deruxtecan, DAR 4.6, was then added to the cancer cells. […] Taxol and Triton are added as the positive killing control. […] Taxol and Triton are added as the positive killing control. […]\n(§1) To assess real-time killing of target cancer cells including breast cancer cells (T47D), non-small cell lung cancer cells (NCI-H1975) and pancreatic cancer cells (HP AF II) assays were performed on an xCELLigence RTCA MP Instrument (Agilent). Target Cancer cells were seeded onto a multi-electrode well plate at a density of 5000 cells/well (100 μL of a 50,000 cells/mL stock) and incubated for 24 hr in a 37° C./5% CO2 incubator. mAb MNC2 ADCs or mAb MN20A10-ADCs were prepared as a 2× solution in corresponding growth media and 100 μL of each concentration was added to target cells. As a positive control (100% cell killing) cells were treated with either 1% triton or 1 μM Taxol instead of ADC. After 40-120 hours incubation in a 37° C./5% CO2 incubator cell killing was assessed. In this assay, impedance is measured in real-time. When the adherent cancer cells are killed and come off the electrode surface, impedance (insulation) decreases.\n(§2) MNC2-ADCs and MN20A10-ADCs were also assayed for their ability to kill both low and high MUC1* expressing cells by monitoring killing in real-time using an xCELLigence instrument. In the xCelligence system, target cancer cells, which are adherent, are plated onto electrode array 96-well plates. Adherent cells insulate the electrode and increase the impedance. The number of adherent cancer cells is directly proportional to impedance. […] Therefore, increasing impedance reflects the growth of the cancer cells and decreasing impedance reflects the killing of the cancer cells.\nBreast cancer cell line T47D-wt expresses MUC1* at low to low-medium levels. Pancreatic cancer cell line HPAF II-wt expresses even lower levels of MUC1* and lung cancer cell line NCI-H1975 express still lower levels of MUC1*."}, "[3]": {"test_system": "T47D-MUC1* breast cancer cells", "assay": "xCELLigence real-time killing assay (impedance)", "assay_type": "cell-based, human", "protocol": "In this assay, impedance is measured in real-time. When the adherent cancer cells are killed and come off of the electrode surface, impedance (insulation) decreases. […] Either MNC2-MMAE, DAR 4.1, MN20A10-MMAE, DAR 5.8, MNC2-MMAF, DAR 3.7, MN20A10-MMAF, DAR 3.8, MNC2-Deruxtecan, DAR 7.2, or MN20A10-Deruxtecan, DAR 4.6, was then added to the cancer cells. […] Taxol and Triton are added as the positive killing control. […] Taxol and Triton are added as the positive killing control.\nIn this assay, impedance is measured in real-time. When the adherent cancer cells are killed and come off of the electrode surface, impedance (insulation) decreases. […] Either MNC2-Exatecan, DAR 8.2, MNC2-Deruxtecan, DAR 4.0, MNC2-MMAE, DAR 4.1, or free Exatecan at 50 μM, was then added to the cancer cells.\nas §1, §2"}, "[4]": {"test_system": "NCI-H1975 lung cancer cells", "assay": "xCELLigence real-time killing assay (impedance)", "assay_type": "cell-based, human", "conditions": "readout 0 to 120 hours, DAR 8.2 (FIG. 56)", "protocol": "FIG. 51A-51I show traces from the real-time killing assays performed on an xCELLigence instrument. In this assay, impedance is measured in real-time. When the adherent cancer cells are killed and come off of the electrode surface, impedance (insulation) decreases. NCI-H1975 lung cancer cells were plated onto multi-electrode-well plates at 5,000 cells per well and allowed to adhere and grow for 24 hours before the addition of ADCs. Either MNC2-MMAE, DAR 4.1, MN20A10-MMAE, DAR 5.8, MNC2-MMAF, DAR 3.7, MN20A10-MMAF, DAR 3.8, MNC2-Deruxtecan, DAR 7.2, or MN20A10-Deruxtecan, DAR 4.6, was then added to the cancer cells. […] Taxol and Triton are added as the positive killing control. […].\nFIGS. 56A-56D show traces from the real-time killing assays performed on an xCELLigence instrument. In this assay, impedance is measured in real-time. When the adherent cancer cells are killed and come off of the electrode surface, impedance (insulation) decreases. Here NCI-H1975 non-small cell lung cancer cells that express very low levels of MUC1*, were plated onto multi-electrode 96-well plates at 5,000 cells per well and allowed to adhere and grow for 24 hours before the addition of ADCs. Either MNC2-Exatecan, DAR 8.2, MNC2-Deruxtecan, DAR 4.0, MNC2-MMAE, DAR 4.1, or free Exatecan at 50 μM, was then added to the cancer cells.\nas §1, §2"}, "[5]": {"test_system": "cancer cells that express low levels of MUC1*", "assay": "xCELLigence real-time killing assay, summary over low expressers", "assay_type": "cell-based", "conditions": "FIG. 54 and FIG. 56, DAR 8.2"}, "[6]": {"assay": "Toxicities in animal studies of the ADC formats", "assay_type": "in vivo", "conditions": "each antibody incorporated into several ADC formats", "excerpt": "Exatecans have a high level of bystander effect, meaning that they can kill neighboring cells. […] It is not completely clear whether these side effects are due to the payload or to the target, HER2, which is also expressed on normal lung and normal heart. Recall that the first two patients treated with a HER2 targeting CAR T cell product died shortly after the infusion. […] More recently, yet another patient died after being treated with a different HER2-targeting ADC."}},
  "note": "Marks after values point to notes of the source that are not given here.",
  "data": [
    {"molecule": "MN20A10-Deruxtecan (conjugate) VH: QVQLVESGGGLVKPGGSLRLSCAASGFTFSTYAMSWIRQAPGKGLEWVASIGRAGSTYYSDSVKGRFTISRDNAKNSLYLQMNSLRAEDTAVYYCARGPIYNDYDEFAYWGQGTLVTVSS VL: EIVLTQSPATLSLSPGERATLSCKSSQSVLYSSNQKNYLAWYQQKPGQAPRLLIYWASTRESGIPARFSGSGSGTDFTLTISSLEPEDFAVYYCHQYLSSLTFGGGTKVEIKR", "values": [
      {"measurement": "cell morphology in photographs", "setting": "[1]", "value": "rounding up and dead cells"},
      {"measurement": "concentration showing potent / effective / comparable killing", "setting": "[2]; after 120 hours", "value": 167, "unit": "nM"},
      {"measurement": "concentration with significant killing", "setting": "[2]; by 120 hours, DAR 4.6", "value": 167, "unit": "nM"},
      {"measurement": "ADC concentration at which essentially all (near total) tumor cells were killed", "setting": "[3]; readout 120 hours post ADC addition", "value": 167, "unit": "nM"}
    ]},
    {"molecule": "MNC2-Exatecan (conjugate) VH: EVQLVESGGGLVKPGGSLRLSCAASGFTFSGYAMSWVRQAPGKGLEWVSTISSGGTYIYYPDSVKGRFTISRDNAKNSLYLQMNSLRAEDTAVYYCARLGGDNYYEYFDVWGKGTTVTVSS VL: DIVLTQSPASLAVSPGQRATITCRASKSVSTSGYSYMHWYQQKPGQPPKLLIYLASNLESGVPARFSGSGSGTDFTLTINPVEANDTANYYCQHSRELPFTFGGGTKVEIKRT", "values": [
      {"measurement": "concentration as low as which cancer cells are potently killed", "setting": "[4]", "value": 167, "unit": "nM"},
      {"measurement": "killing potency compared with MNC2-deruxtecan (DAR 4.0) and MNC2-MMAE (DAR 4.1)", "setting": "[5]", "value": "more potent killing of the low MUC1* expressing cancer cells"},
      {"measurement": "concentration as low as which target cancer cells are potently killed", "setting": "[2]; readout 0 to 120 hours, DAR 8.2 (FIG. 54)", "value": 56, "unit": "nM"},
      {"measurement": "concentration as low as which cancer cells are potently killed", "setting": "[3]; readout 0 to 120 hours, MNC2-Exatecan DAR 8.2, MNC2-Deruxtecan DAR 4.0 (FIG. 55)", "value": "as low as 6.2 nM and even as low as 2.1 nM"}
    ]},
    {"molecule": "MN20A10: anti-MUC1* antibody, IgG2b isotype, CDRs SEQ ID NO 1-3 and 13-15 (antibody, V domains shown) VH: EVMLVESGGGLVKPGGSLKLSCAASGFTFSTYAMSWIRQTPEKRLEWVASIGRAGSTYYSDSVKGRFTISRDNVRNILYLQMSSLRSEDTAMYYCARGPIYNDYDEFAYWGQGTLVTVSA VL: NIMMTQSPSSLAVSAGEKVTMSCKSSQSVLYSSNQKNYLAWYQQKPGQSPKLLIYWASTRESGVPDRFTGSGSGTDFTLTISSVQAEDLAVYYCHQYLSSLTFGAGTKLELK", "values": [
      {"measurement": "toxicities", "setting": "[6]", "value": "elicited no toxicities in animal studies"}
    ]}
  ]
}
